Results: article PMC10950856, “Structure of orthoreovirus RNA chaperone σNS, a component of viral replication factories” (Nature Communications, 2024)
Values joined by “and” are separate entries in the source; they are usually repeats but may differ in a detail not shown here. Equal entries are not always repeated.

How the values were obtained:
[1] = target: the molecule itself; test: not stated; in solution; the method is not named for this construct (the constructs were purified on an S200 16/60-increase column)
[2] = target: the molecule itself; test: SEC; S200 16/60-increase column, 10 mM HEPES (pH 8.0), 150 mM NaCl, after anion-exchange chromatography; size of the oligomer from the elution volume

B1: σNS-ΔN17 (σNS lacking the N-terminal 17 residues) (domain or fragment)
chain: GQQVCPNYVMLRSSVTTKVVRNVVEYQIRTGGFFSCLAMLRPLQYAKRERLLGQRNLERISTRDILQTRDLHSLCMPTPDAPMSNHQASTMRELICSYFKVDHADGLKYIPMDERYSPSSLARLFTMGMAGLHITTEPSYKRVPIMHLAADLDCMTLALPYMITLDGDTVVPVAPTLSAEQLLDDGLKGLACMDISYGCEVDANSRPAGDQSMDSSRCINELYCEETAEAICVLKTCLVLNCMQFKLEMDDLAHNAAELDKIQMMIPFSERVFRMASSFATIDAQCFRFCVMMKDKNLKIDMRETTRLWTRSASDDSVATSSLSISLDRGRWVAADASDARLLVFPIRV
notes: σNS nonstructural protein of mammalian orthoreovirus, strain type 3 Dearing, truncated by the N-terminal 17 residues; synthesized gene in pET28; Dimer in solution and in the crystal; source: E. coli DE3 cells, purified (Ni-NTA, TEV cleavage, Q column, S200 SEC); not shown: His tag, N-terminal, cleaved
stoichiometry N [1]: 2

B2: wildtype (WT) σNS (mammalian orthoreovirus, strain type 3 Dearing) (natural protein)
chain: MASSLRAAISKIKRDDVGQQVCPNYVMLRSSVTTKVVRNVVEYQIRTGGFFSCLAMLRPLQYAKRERLLGQRNLERISTRDILQTRDLHSLCMPTPDAPMSNHQASTMRELICSYFKVDHADGLKYIPMDERYSPSSLARLFTMGMAGLHITTEPSYKRVPIMHLAADLDCMTLALPYMITLDGDTVVPVAPTLSAEQLLDDGLKGLACMDISYGCEVDANSRPAGDQSMDSSRCINELYCEETAEAICVLKTCLVLNCMQFKLEMDDLAHNAAELDKIQMMIPFSERVFRMASSFATIDAQCFRFCVMMKDKNLKIDMRETTRLWTRSASDDSVATSSLSISLDRGRWVAADASDARLLVFPIRV
notes: σNS nonstructural protein of mammalian orthoreovirus, strain type 3 Dearing; synthesized gene in pET28; source: E. coli DE3 cells, purified (Ni-NTA, TEV cleavage, Q column, S200 SEC); not shown: His tag, N-terminal, cleaved
stoichiometry N [2]: 10 and 8

B3: σNS-R6A (native, without Se-Met substitution) (natural protein)
chain: MASSLAAAISKIKRDDVGQQVCPNYVMLRSSVTTKVVRNVVEYQIRTGGFFSCLAMLRPLQYAKRERLLGQRNLERISTRDILQTRDLHSLCMPTPDAPMSNHQASTMRELICSYFKVDHADGLKYIPMDERYSPSSLARLFTMGMAGLHITTEPSYKRVPIMHLAADLDCMTLALPYMITLDGDTVVPVAPTLSAEQLLDDGLKGLACMDISYGCEVDANSRPAGDQSMDSSRCINELYCEETAEAICVLKTCLVLNCMQFKLEMDDLAHNAAELDKIQMMIPFSERVFRMASSFATIDAQCFRFCVMMKDKNLKIDMRETTRLWTRSASDDSVATSSLSISLDRGRWVAADASDARLLVFPIRV
notes: σNS nonstructural protein of mammalian orthoreovirus, strain type 3 Dearing, with R6A; synthesized gene in pET28; Dimer in solution (~80 kDa); The N-terminal arm is disordered in the crystal with bile acid derivatives; also called native σNS-R6A; σNS R6A mutant; source: E. coli DE3 cells, purified (Ni-NTA, TEV cleavage, Q column, S200 SEC); not shown: His tag, N-terminal, cleaved
stoichiometry N [2]: 2

B4: selenomethionine (Se-Met)-substituted σNS-R6A (natural protein)
chain: MASSLAAAISKIKRDDVGQQVCPNYVMLRSSVTTKVVRNVVEYQIRTGGFFSCLAMLRPLQYAKRERLLGQRNLERISTRDILQTRDLHSLCMPTPDAPMSNHQASTMRELICSYFKVDHADGLKYIPMDERYSPSSLARLFTMGMAGLHITTEPSYKRVPIMHLAADLDCMTLALPYMITLDGDTVVPVAPTLSAEQLLDDGLKGLACMDISYGCEVDANSRPAGDQSMDSSRCINELYCEETAEAICVLKTCLVLNCMQFKLEMDDLAHNAAELDKIQMMIPFSERVFRMASSFATIDAQCFRFCVMMKDKNLKIDMRETTRLWTRSASDDSVATSSLSISLDRGRWVAADASDARLLVFPIRV
modifications: selenomethionine in place of methionine (Se-Met-substituted; Mse 1 named)
notes: σNS nonstructural protein of mammalian orthoreovirus, strain type 3 Dearing, with R6A; synthesized gene in pET28; Octamer by SEC; helical assembly of dimers in the crystal; Residue 1 (Mse 1) is seen in the structure; also called Se-Met σNS-R6A; source: E. coli B834 cells in medium with Se-Met, purified (Ni-NTA, TEV cleavage, Q column, S200 SEC); not shown: His tag, N-terminal, cleaved
stoichiometry N [2]: 8
